Values of other authors in PMC12390062.

Tests used:
[1] = biological target: nicotinic acetylcholine receptor α7 (Gallus gallus) (UniProt P22770)
[2] = biological target: nicotinic acetylcholine receptor α-δ interface α-δ interface (Mus musculus) (UniProt P04756)
[3] = biological target: nicotinic acetylcholine receptor α-γ interface α-γ interface (Mus musculus) (UniProt P04756)

Substance	Kd [1] [µM]	Kd [2] [µM]	Kd [3] [µM]
wNTX5 (Group 3b (ii) toxin) (from UniProt O42255)	90		
α-conotoxin MI (from UniProt P01521)		0.00062	20
